Values joined by “and” are separate entries in the source; they are usually repeats but may differ in a detail not shown here. Equal values may be shown once.

For the assay, the target named is M2 protein of influenza A/Hong Kong/483/97 (H5N1) (Influenza A virus A/Hong Kong/483/97).

Chain of TCN-032 (8I10) (antibody) (VH): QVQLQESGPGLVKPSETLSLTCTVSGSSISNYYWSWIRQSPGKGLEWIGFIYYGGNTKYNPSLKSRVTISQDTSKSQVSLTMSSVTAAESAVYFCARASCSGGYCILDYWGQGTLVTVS
Chain of TCN-032 (8I10) (antibody) (VL): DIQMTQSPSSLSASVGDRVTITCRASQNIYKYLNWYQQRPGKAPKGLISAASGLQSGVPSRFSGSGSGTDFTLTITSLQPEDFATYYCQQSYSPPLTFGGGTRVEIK

As for TCN-032 (8I10) (antibody), the FACS M2-HK MFI is 754 MFI and 1080 MFI.

The values are drawn from US20120207760A1.
